Measured values from publication PMC12234153.

Target: STAT3 (UniProt P42227)
Assay: anti-FLAG co-IP, anti-HA blot
Settings: reference: wild type SMAD2-FLAG; sites S255

binding against the reference: weaker
Substance: SMAD2 (from UniProt Q15796) S255A
